Test results published in publication doi:10.1101/2021.02.05.428650 (bioRxiv, 2021).
Values joined by “and” are separate entries in the source; they are usually repeats but may differ in a detail not shown here. Identical values can stand only once.

Target: the molecule itself
Assay: SDS-PAGE and Western blot after detergent removal

For MIELSLIDFYLCFLAFLLFLVLIMLIIFWFSLELQDHNETCHA (natural protein) [ORF7b from SARS-CoV-2], the “stoichiometry N” value was ≤ 10 and 5.
